Test results published in publication PMC10855902 (International Journal of Molecular Sciences, 2024).
Blank lines part the entries; values can stand above or below the binder they belong to.

How the values were obtained:
Settings in all cases: both partners purified
[1] = target: T1, Recombinant human EGFR protein (Active) (ab155639) (human, UniProt P00533 25-645, labelled with RED-tris-NTA 2nd Generation dye); test: MST; RED-tris-NTA-labelled EGFR 25 nM, ligand in a 16-step 1:1 dilution series in PBS-T, 30 min at room temperature; assay concentration of the ligand 1 mM
T1 construct: epidermal growth factor receptor (EGFR, ErbB-1), human, recombinant; also called EGF receptor; ErbB-1; source: bought: Abcam (ab155639), recombinant

[2] = target: T1, Recombinant human EGFR protein (Active) …; test: MST; RED-tris-NTA-labelled EGFR 25 nM, ligand in a 16-step 1:1 dilution series in PBS-T, 30 min at room temperature; assay concentration of the ligand 3 mM
[3] = target: T1, Recombinant human EGFR protein (Active) …; test: MST; RED-tris-NTA-labelled EGFR 25 nM, ligand in a 16-step 1:1 dilution series in PBS-T, 30 min at room temperature; assay concentration of the ligand 50 μM
[4] = target: T1, Recombinant human EGFR protein (Active) …; test: MST; RED-tris-NTA-labelled EGFR 25 nM, ligand in a 16-step 1:1 dilution series in PBS-T, 30 min at room temperature; assay concentration of the ligand 100 μM
[5] = target: T1, Recombinant human EGFR protein (Active) …; test: MST; RED-tris-NTA-labelled EGFR 25 nM, ligand in a 16-step 1:1 dilution series in PBS-T, 30 min at room temperature; assay concentration of the ligand 463 μM
[6] = target: T1, Recombinant human EGFR protein (Active) …; test: MST; RED-tris-NTA-labelled EGFR 25 nM, ligand in a 16-step 1:1 dilution series in PBS-T, 30 min at room temperature; assay concentration of the ligand 5 mM
[7] = target: T1, Recombinant human EGFR protein (Active) …; test: MST; RED-tris-NTA-labelled EGFR 25 nM, ligand in a 16-step 1:1 dilution series in PBS-T, 30 min at room temperature; assay concentration of the ligand 10 mM
[8] = target: T1, Recombinant human EGFR protein (Active) …; test: MST; RED-tris-NTA-labelled EGFR 25 nM, ligand in a 16-step 1:1 dilution series in PBS-T, 30 min at room temperature; assay concentration of the ligand 2.5 mM
[9] = target: T1, Recombinant human EGFR protein (Active) …; test: MST; RED-tris-NTA-labelled EGFR 25 nM, ligand in a 16-step 1:1 dilution series in PBS-T, 30 min at room temperature; assay concentration of the ligand 250 μM
[10] = target: T1, Recombinant human EGFR protein (Active) …; test: MST; RED-tris-NTA-labelled EGFR 25 nM, ligand in a 16-step 1:1 dilution series in PBS-T, 30 min at room temperature; assay concentration of the ligand 6.02 mM

Kd [1]: 35.9 µM
Kd [2]: 416 µM
Kd [3]: 0.0705 µM
Kd [4]: 8.2 µM
Kd [5]: 21.2 µM
B1: EGF fragment 10–22 (HDGYCLHDGVCMY) (peptide)
peptide: HDGYCLHDGVCMY
notes: EGF, human, residues 10-22; numbers count on: the mature protein; source: synthetic peptide (SPPS, Fmoc; crude, without preparative HPLC)

Kd [6]: 663 µM
Kd [7]: 533 µM
Kd [3]: 0.0664 µM
Kd [4]: 0.0174 µM
Kd [8]: 431 µM
Kd [9]: 48.4 µM
Kd [10]: 715 µM
B2: EGF fragment 10–15 (HDGYCL) (peptide)
peptide: HDGYCL
notes: EGF, human, residues 10-15; numbers count on: the mature protein; also called 10–15 EGF fragment; source: synthetic peptide (SPPS, Fmoc; crude, without preparative HPLC)
